The source of these data is paper PMC314469, “Protein Interaction Networks by Proteome Peptide Scanning” (PLoS Biology, 2004).

T1: Abp1 SH3 (ABP1_YEAST), P15891
T1 chain: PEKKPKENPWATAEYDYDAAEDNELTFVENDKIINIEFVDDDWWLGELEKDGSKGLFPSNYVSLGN

The target in this test is T1, Abp1 SH3 (ABP1_YEAST), P15891. The test is described as follows: SPOT array.
SNYITDRPFTRKP [YPR008W 490-502] came in with a normalised SPOT signal, Boehringer light units (BLU); mean over the file's lines of this peptide of 409. Next, SNMTFQYPGTTKP [YNL014W 670-682]: 144; SQATKSSPFRSRP [YKR089C 884-896]: 1250; SPAKQKTPPSPAKP [YBR102C 22-35]: 54.6. Next, SSPTKVASSSPLKP [YAL019W 19-32]: 104; SPSPSPSPLNPYRP [YNL298W 398-411]: 21.8; SNKTHTEQNNPPKP [YOR290C 408-421]: 83.8. Next, SSSSSPLENTPPRP [YML027W 280-293]: 159.

In the case of SNASVADAKEPSRP [YJR138W 1326-1339], the normalised SPOT signal, Boehringer light units (BLU); mean over the file's lines of this peptide stood at 46. Next, SNPAYDGPLFSKP [YNL307C 267-279]: 95.6. The molecule SPDQWSVPAGHRP [YPR181C 246-258] had a normalised SPOT signal, Boehringer light units (BLU); mean over the file's lines of this peptide of 65.3. Next, SNGLLLEPSALRP [YOR023C 198-210]: 0.

In the case of SPFPADTPSSNRP [YGL201C 3-15], the normalised SPOT signal, Boehringer light units (BLU); mean over the file's lines of this peptide was determined as 114. Next, SRKNSMSPTRKRP [YNL152W 392-404]: 209; SQSANLAPSNLRP [YER005W 601-613]: 95.4. Next, SNIVSILPEGAKP [YKL015W 850-862]: 106; SQEVQRVPWDNKP [YGL114W 7-19]: 86.2. SREDRKNRAPPQRP [YER131W 88-101]: the normalised SPOT signal, Boehringer light units (BLU); mean over the file's lines of this peptide worked out at 109.

On to SPEENTDFALPMKP [YDR273W 125-138], for which the normalised SPOT signal, Boehringer light units (BLU); mean over the file's lines of this peptide stood at 98.8. Next, SPMLDAAPPTTKP [YER116C 142-154]: 158; SNRATLLTTLPMKP [YIL056W 426-439]: 243. Next, SRGRYGLPLSSRP [YDR419W 378-390]: 327; SRQAIPPPVPNRP [YLR144C 4-16]: 2950. Next, SSSPKKGPLSIKP [YNL230C 233-245]: 347; SPMRGVAPTASKP [YPL137C 250-262]: 2700; SSGPSASHRGPRRP [YMR280C 1387-1400]: 390. The molecule SSAIEDSPPDFKP [YBL054W 173-185] yielded a normalised SPOT signal, Boehringer light units (BLU); mean over the file's lines of this peptide of 85.8.

SSALMQGQKTPQKP [YLR079W 24-37]: the normalised SPOT signal, Boehringer light units (BLU); mean over the file's lines of this peptide was determined as 335. For SSILHDLPRKVRP [YJL076W 1069-1081], the normalised SPOT signal, Boehringer light units (BLU); mean over the file's lines of this peptide was 786. Take SNGAIQTGLQPLKP [YOR329C 434-447]: the normalised SPOT signal, Boehringer light units (BLU); mean over the file's lines of this peptide was found to be 70.4. Next, SNDDVEFYYPPVKP [YLR155C 216-229]: 92.8; SNSSTAGLVAPLKP [YDR158W 154-167]: 61.1; SRNFTLNYAFPIKP [YBL058W 387-400]: 80.1. Next, SSSSSILPSTPTRP [YPL202C 310-323]: 70.9; SNNVYSSEYHPIKP [YDL180W 227-240]: 12.1; SPNEIFSPSYSKP [YGL092W 308-320]: 66.1. Molecule SSIFEDHHITPSKP [YDR451C 284-297] came in with a normalised SPOT signal, Boehringer light units (BLU); mean over the file's lines of this peptide of 0. Next, SQRSSDLPEWRRP [YJR035W 262-274]: 377; SSSRSVVPILPKP [YER040W 495-507]: 329.
